Test [1] deals with enolase, native, from Francisella novicida (Francisella novicida). Kind of test: cryo-EM structure.
The target of test [2] is riboflavin biosynthesis protein D (RibD), native, from Francisella novicida (Francisella novicida). Description: cryo-EM structure.

The stoichiometry N is a count of units in the complex or per binding partner. “enolase, native, from Francisella novicida (enzyme)”: the stoichiometry N in test [1] came to 2.
For “riboflavin biosynthesis protein D (RibD), native, from Francisella novicida (enzyme)”, the stoichiometry N in test [2] is 2.

These data come from PMC12742849 (Protein & Cell, 2025).
